1 molecule from US20100279318A1 (OMEROS, published 2010) can be followed below.

In the experiment the target is T1, dopamine D5 receptor-GFP (D5-GFP) (Aequoria victoria, UniProt P21918 1-477; P42212 1-238 = GFP).
T1 construct: also called D5 dopamine receptor; not shown: vector-encoded residues between the KpnI site and the start codon of GFP
As to the kind of experiment: NLS co-trafficking assay, co-transfected HEK cells, 48 h, confocal microscopy.

B1: Dopamine D1 receptor containing a NLS (D1-NLS) (receptor)
chain: MRTLNTSAMDGTGLVVERDFSVRILTACFLSLLILSTLLGNTLVCAAVIRFRHLRSKVTNFFVISLAVSDLLVAVLVMPWKAVAEIAGFWPFGSFCNIWVAFDIMCSTASILNLCVISVDRYWAISSPFRYERKMTPKAAFILISVAWTLSVLISFIPVQLSWHKAKPTSPSDGNATSLAETIDNCDSSLSRTYAISSSVISFYIPVAIMIVTYTRIYRIAQKQIRRIAALERAAVHAKNCQTTTGNGKPVECSQPESSFKMSFKRETKVLKTLSVIMGVFVCCWLPFFILNCILPFCGSGETQPFCIDSNTFDVFVWFGWANSSLNPIIYAFNAKKFKRFSTLLGCYRLCPATNNAIETVSINNNGAAMFSSHHEPRGSISKECNLVYLIPHAVGSSEDLKKEEAAGIARPLEKLSPALSVILDYDTDVSLEKIQPITQNGQHPT
notes: No fluorescent tag; whether that entry is the full-length receptor cannot be seen from the text; The vector of the untagged D1-NLS is not described; also called D1 receptor with the NLS
As for B1, the binding result is on record as “no binding”.
